US20170233470A1 (INSERM INSTITUT NATIONAL DE LA SANT ET DE LA RECHERCHE M …, published 2017)

Biological target: Neurotensin (NTS) (UniProt P30990 151-163)
Assay: cell-based or functional assay

B1: NTSp27-7.4 (antibody, V domains shown)
VH: DVKLVESGGGLVKLGGSLKLSCAASGFTFSGYYMSWVRQTPEKRLELVAAINNYGDNTNYPDTVKGRFSVSRDNAKNTLYLEMNSLKSEDTALYYCARLANYANQRGAMDYWGQGTSVTVSS
VL: DIQMTHTTSSLSASLGDRVTISCRASQDIANYLNWYQQKPDGTVTLLIYYTSRLHSGVPSRFSGSGSGTDYSLTINNLDQEDIATYFCQQGYTLPPTFGGGTKLEIK
- apoptosis of A2780 cells (Annexin V-FITC/PI, flow cytometry), fold increase relative to control cells: 2.5 fold
- apoptosis of SKOV3 cells (Annexin V-FITC/PI, flow cytometry), fold increase relative to control cells: 8.2 fold
